From publication doi:10.1101/2024.09.11.612445 (bioRxiv, 2024) come the findings set out here.

Assay [1] has as its target T1, recombinant CSTF3 21-549 (human, UniProt Q12996 21-549).
T1 sequence (looked up): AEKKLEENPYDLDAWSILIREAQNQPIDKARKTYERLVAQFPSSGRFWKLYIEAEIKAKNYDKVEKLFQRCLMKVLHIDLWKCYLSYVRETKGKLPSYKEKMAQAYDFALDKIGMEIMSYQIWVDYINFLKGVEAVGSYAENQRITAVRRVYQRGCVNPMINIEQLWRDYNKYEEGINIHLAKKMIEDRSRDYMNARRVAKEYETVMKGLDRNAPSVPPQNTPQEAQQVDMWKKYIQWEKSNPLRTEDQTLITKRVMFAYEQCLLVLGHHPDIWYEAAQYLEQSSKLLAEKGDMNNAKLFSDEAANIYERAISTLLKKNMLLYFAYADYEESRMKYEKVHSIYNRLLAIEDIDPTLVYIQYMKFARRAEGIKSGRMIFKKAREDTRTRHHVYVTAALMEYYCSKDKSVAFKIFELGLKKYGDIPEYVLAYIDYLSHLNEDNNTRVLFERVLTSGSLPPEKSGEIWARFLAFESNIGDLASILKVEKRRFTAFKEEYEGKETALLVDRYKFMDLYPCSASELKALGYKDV
In words: pull-down.

For assay [2], the target named is T1, recombinant CSTF3 21-549. Kind of assay: ITC. For orientation: ITC needs no label: the signal is the heat of the interaction.

B1: GST-WDR33 431-485 wild-type (domain or fragment, human, UniProt Q9C0J8 431-485, looked up)
chain: DDLEPNSLAVIPGMGIPEQLKLAMEQEQMGKDESNEIEMTIPGLDWGMEEVMQKD
For the molecule B1, the binding result in assay [1] was “binds”.
For the molecule SPTVDDEEEMLYGDS (peptide, UniProt Q10570 737-751, looked up) [CPSF1 737-751 wild-type peptide], in assay [2], the binding result is given as “binds”.
